The record followed here is the supplement of paper PMC10567573.

First the molecules themselves.
B1: TRAF3IP2 (parent)
chain: FMEKRNQWLVSQLSAASPDTGHDS
B2: FAM50A (parent)
chain: KALEILRKDFSELRSAGVEQLMYI
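Also: lentivirally expressed fusions sorted by FACS into six bins by GFP to DsRed ratio, PSI derived from sequencing read proportions per bin multiplied by bin number.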

One data set covers variants of B1. Kind of data set: protein stability index of a GFP-peptide fusion (GPS, HEK-293T) (PSI 1-6); higher = more stable. The following applies: c terminus: a fixed tail appended.
On to FMEKRNQWLVSQLSAESPDTGHDS [A16E], for which the protein stability index stood at 2.62.
The same measure, in the same setting: as for FMEKQNQWLVSQLSAASPDTGHDS [R5Q], the figure is 2.67; as for FMEKWNQWLVSQLSAASPDTGHDS [R5W], 3.1.
The same measure, in the same setting: as for FMEKDNQWLVSQLSAASPDTGHDS [R5D], the figure is 2.99; as for FMEKLNQWLVSQLSAASPDTGHDS [R5L], 1.79; as for FMEKRQQWLVSQLSAASPDTGHDS [N6Q], 1.91.
The same measure, in the same setting: as for FMEKRNQWLVSQLSAASPDTGIDS [H22I], the figure is 1.95.
With FMEKRNQWLVSQLSAASPDTGPDS [H22P], the protein stability index was found to be 2.94.
With FMEKRNQWDVSQLSAASPDTGHDS [L9D], the protein stability index was 4.31.
FMEKRNQWLMSQLSAASPDTGHDS [V10M]: the protein stability index is 2.74.
As for FMEKRNQWLKSQLSAASPDTGHDS [V10K], the protein stability index came to 3.41.
As for FMEKRNQWLVSQLSAAQPDTGHDS [S17Q], the protein stability index amounted to 2.63.
Still for that read-out and setting: the same measure for FMEKRNQWLVSQLSAACPDTGHDS [S17C]: 2.98; for FMEKRNQWLVSQLSAAPPDTGHDS [S17P]: 2.66.
Same read-out and setting: as for FMEKRNQWLVSQLSAASPDTMHDS [G21M], the figure is 1.77; as for FMEKRNQWLVSQLSAASGDTGHDS [P18G], 2.38; as for FMEKRNQWLVSQLSAASLDTGHDS [P18L], 1.93.
On the same count and under the same terms, as for FMEKRNQWLVSQLSAASHDTGHDS [P18H], the figure is 2.08; as for FMEKRNQWLVSQLSAASPHTGHDS [D19H], 2.2; as for FMEKRNQWLVSQLSAASPCTGHDS [D19C], 2.45.
As to TMEKRNQWLVSQLSAASPDTGHDS [F1T], the protein stability index is 4.2.
Consider SMEKRNQWLVSQLSAASPDTGHDS [F1S], for which the protein stability index stood at 4.37.
Turning to RMEKRNQWLVSQLSAASPDTGHDS [F1R], the protein stability index stood at 4.48.
As for FMEKRNQWLVSQLSNASPDTGHDS [A15N], the protein stability index came to 2.21.
On to FMEKRNQWLVSQLSVASPDTGHDS [A15V], for which the protein stability index came out at 1.83.
Turning to FMEKRNQWLVSQLSCASPDTGHDS [A15C], the protein stability index amounted to 2.38.
With FMAKRNQWLVSQLSAASPDTGHDS [E3A], the protein stability index came to 3.
For FMWKRNQWLVSQLSAASPDTGHDS [E3W], the protein stability index came out at 1.81.
Same read-out and setting: as for FMEKRNQWLVSQLSAASPDTGHDG [S24G], the figure is 3.22; as for FMEKRNQWLVSQLSAASPDTGHDI [S24I], 2.1.
Take FSEKRNQWLVSQLSAASPDTGHDS [M2S]: the protein stability index worked out at 2.2.
On the same count and under the same terms, the same measure for FLEKRNQWLVSQLSAASPDTGHDS [M2L]: 2.46; for FQEKRNQWLVSQLSAASPDTGHDS [M2Q]: 3.27; for FCEKRNQWLVSQLSAASPDTGHDS [M2C]: 2.94.
Take FMEKRNQWLVSCLSAASPDTGHDS [Q12C]: the protein stability index was 1.85.
Still for that read-out and setting: the same measure for FMEKRNQWLVSQTSAASPDTGHDS [L13T]: 2.67; for FMEKRNQWLVSQESAASPDTGHDS [L13E]: 3.2; for FMEKRNQWLVSQLSAASPDTGHQS [D23Q]: 2.44.
As to FMEKRNQWLVSQLSAASPDTGHRS [D23R], the protein stability index came out at 2.07.
Same read-out and setting: the same measure for FMEKRNQWLVSQLSAASPDTGHYS [D23Y]: 1.75.
On to FMEKRNQWLVSQLSAASPDTGHKS [D23K], for which the protein stability index came to 1.6.
Still for that read-out and setting: as for FMEHRNQWLVSQLSAASPDTGHDS [K4H], the figure is 2.16; as for FMEKRNQWLVSQLSAASPDAGHDS [T20A], 2.32.
For FMEKRNSWLVSQLSAASPDTGHDS [Q7S], the protein stability index turned out to be 1.64.

Variants of B2 are the subject of another data set. Described as above. The following applies: c terminus: a fixed tail appended.
Consider KALEYLRKDFSELRSAGVEQLMYI [I5Y], for which the protein stability index was 2.52.
In the case of KALECLRKDFSELRSAGVEQLMYI [I5C], the protein stability index was 2.39.
The same measure, in the same setting: the same measure for KALEKLRKDFSELRSAGVEQLMYI [I5K]: 1.69; for KALEFLRKDFSELRSAGVEQLMYI [I5F]: 1.5.
Regarding KALEMLRKDFSELRSAGVEQLMYI [I5M], the protein stability index was 3.79.
Take KALEPLRKDFSELRSAGVEQLMYI [I5P]: the protein stability index is 1.78.
In the case of KALEWLRKDFSELRSAGVEQLMYI [I5W], the protein stability index turned out to be 2.75.
Consider KALETLRKDFSELRSAGVEQLMYI [I5T], for which the protein stability index came out at 2.4.
Regarding KALEHLRKDFSELRSAGVEQLMYI [I5H], the protein stability index is 3.56.
The same measure, in the same setting: as for KALEDLRKDFSELRSAGVEQLMYI [I5D], the figure is 1.55; as for KAPEILRKDFSELRSAGVEQLMYI [L3P], 2.77.
Same read-out and setting: the same measure for KACEILRKDFSELRSAGVEQLMYI [L3C]: 3.15; for KADEILRKDFSELRSAGVEQLMYI [L3D]: 1.73.
KANEILRKDFSELRSAGVEQLMYI [L3N]: the protein stability index came out at 1.5.
Same read-out and setting: as for KAHEILRKDFSELRSAGVEQLMYI [L3H], the figure is 1.57.
For the variant KAMEILRKDFSELRSAGVEQLMYI [L3M], the protein stability index is 2.02.
On the same count and under the same terms, the same measure for KATEILRKDFSELRSAGVEQLMYI [L3T]: 1.84; for KAREILRKDFSELRSAGVEQLMYI [L3R]: 2.52; for KAKEILRKDFSELRSAGVEQLMYI [L3K]: 2.58.
Still for that read-out and setting: the same measure for KHLEILRKDFSELRSAGVEQLMYI [A2H]: 1.48.
The same measure, in the same setting: the same measure for KFLEILRKDFSELRSAGVEQLMYI [A2F]: 2.4.
As to KDLEILRKDFSELRSAGVEQLMYI [A2D], the protein stability index amounted to 3.3.
Consider KSLEILRKDFSELRSAGVEQLMYI [A2S], for which the protein stability index came to 2.96.
With KCLEILRKDFSELRSAGVEQLMYI [A2C], the protein stability index is 4.79.
The same measure, in the same setting: as for KKLEILRKDFSELRSAGVEQLMYI [A2K], the figure is 1.75.
Same read-out and setting: the same measure for KVLEILRKDFSELRSAGVEQLMYI [A2V]: 1.49; for KWLEILRKDFSELRSAGVEQLMYI [A2W]: 2.73; for KRLEILRKDFSELRSAGVEQLMYI [A2R]: 3.76.
Same read-out and setting: as for KLLEILRKDFSELRSAGVEQLMYI [A2L], the figure is 1.15; as for KNLEILRKDFSELRSAGVEQLMYI [A2N], 1.04; as for KPLEILRKDFSELRSAGVEQLMYI [A2P], 1.95.
As to KALEIERKDFSELRSAGVEQLMYI [L6E], the protein stability index worked out at 2.13.
As for KALEIDRKDFSELRSAGVEQLMYI [L6D], the protein stability index was 2.
For KALEIARKDFSELRSAGVEQLMYI [L6A], the protein stability index came out at 1.41.
On the same count and under the same terms, as for KALIILRKDFSELRSAGVEQLMYI [E4I], the figure is 2.76.
As to KALFILRKDFSELRSAGVEQLMYI [E4F], the protein stability index worked out at 3.86.
Regarding KALKILRKDFSELRSAGVEQLMYI [E4K], the protein stability index is 2.34.
Still for that read-out and setting: the same measure for KALVILRKDFSELRSAGVEQLMYI [E4V]: 2.21.
In the case of KALDILRKDFSELRSAGVEQLMYI [E4D], the protein stability index turned out to be 1.62.
Same read-out and setting: the same measure for KALPILRKDFSELRSAGVEQLMYI [E4P]: 2.74.
For the variant QALEILRKDFSELRSAGVEQLMYI [K1Q], the protein stability index amounted to 1.78.
EALEILRKDFSELRSAGVEQLMYI [K1E]: the protein stability index was 1.88.
On the same count and under the same terms, the same measure for DALEILRKDFSELRSAGVEQLMYI [K1D]: 1.28; for AALEILRKDFSELRSAGVEQLMYI [K1A]: 3.07; for MALEILRKDFSELRSAGVEQLMYI [K1M]: 3.33.
The same measure, in the same setting: the same measure for TALEILRKDFSELRSAGVEQLMYI [K1T]: 1.91; for NALEILRKDFSELRSAGVEQLMYI [K1N]: 1.86; for YALEILRKDFSELRSAGVEQLMYI [K1Y]: 3.42.
Same read-out and setting: the same measure for PALEILRKDFSELRSAGVEQLMYI [K1P]: 2.04; for VALEILRKDFSELRSAGVEQLMYI [K1V]: 1.18.
